In assay [1] the target is T1, Human CD39-His protein (CD9-H52H4, ACRO Biosystems) (human, UniProt P49961 38-478).
T1 construct: Purchased protein; also called human CD39-His antigen; human CD39 protein; not shown: His tag
T1 sequence (looked up): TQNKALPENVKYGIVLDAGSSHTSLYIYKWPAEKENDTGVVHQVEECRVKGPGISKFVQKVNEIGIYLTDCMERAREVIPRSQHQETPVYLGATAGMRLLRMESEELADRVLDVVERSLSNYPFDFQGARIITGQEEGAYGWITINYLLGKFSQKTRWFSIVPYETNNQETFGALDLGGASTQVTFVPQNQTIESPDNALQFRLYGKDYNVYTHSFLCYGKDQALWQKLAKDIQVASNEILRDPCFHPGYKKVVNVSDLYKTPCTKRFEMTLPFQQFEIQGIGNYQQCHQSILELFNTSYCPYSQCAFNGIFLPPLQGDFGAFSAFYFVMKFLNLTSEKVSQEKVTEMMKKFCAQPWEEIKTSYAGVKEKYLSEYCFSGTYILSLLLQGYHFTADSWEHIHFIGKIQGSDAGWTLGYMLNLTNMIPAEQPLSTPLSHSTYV
Briefly: BLI (Fortebio), antibody on AHC probe, human CD39-His in solution. On the technique in general: BLI is a label-free optical method that tracks binding on a fibre tip over time.

The target in assay [2] is T1, Human CD39-His protein (CD9-H52H4, ACRO …). Described as above. The source holds these as a separate data set.

Like-named read-outs stand apart in the source and are kept apart here.

Data on one molecule can be found in EP4722247A1 (Oricell Therapeutics Co., Ltd., dated 2026).

B1: control antibody H5L5 (Patent CN112714768A) (antibody, V domains shown)
VH: QVQLVQSGAEVKKPGASVKVSCKASGYNLKDTFLHWVRQAPGQGLEWMGRIDPANGNIKYDPKFQGRVTITADTSANTAYMELISLRSEDTAVYYCANSPYYYGSGYRIFDVWGQGTTVTVSS
VL: QIVLTQSPATLSLSPGERATLSCSAFSSVNYMHWYQQKPGQAPRLLIYTTSNLASGIPTRFSGSGSGTSYTLTISSLEPEDFAVYYCQQRSTYPFTFGQGTKLEIKR
notes: Anti-CD39 control antibody; also called H5L5 control antibody
For orientation: Kd means the concentration at which binding is half-saturated. Usually koff stands for a measure of how fast the partners let go of each other. A higher koff goes with a short-lived complex. Broadly, the kon is the rate constant with which the complex forms. Low values mean slower complex formation, high ones faster complex formation. Turning to B1, in assay [1], the Kd turned out to be 0.802 nM, the koff came to 0.000168 s⁻¹ and the kon turned out to be 210000 M⁻¹ s⁻¹. In assay [2], this molecule showed a Kd of 1.28 nM, a koff of 0.000408 s⁻¹ and an on-rate (kon) of 320000 M⁻¹ s⁻¹.
